Data taken from patent US20220135701A1 (Genentech, published 2022).
Read-outs that look alike come from different tables or passages of the source.

Legend:
[1] = molecular target: T1, human MerTK on human macrophages (human, UniProt Q12866 21-999); assay: cell-based or functional assay
T1 sequence: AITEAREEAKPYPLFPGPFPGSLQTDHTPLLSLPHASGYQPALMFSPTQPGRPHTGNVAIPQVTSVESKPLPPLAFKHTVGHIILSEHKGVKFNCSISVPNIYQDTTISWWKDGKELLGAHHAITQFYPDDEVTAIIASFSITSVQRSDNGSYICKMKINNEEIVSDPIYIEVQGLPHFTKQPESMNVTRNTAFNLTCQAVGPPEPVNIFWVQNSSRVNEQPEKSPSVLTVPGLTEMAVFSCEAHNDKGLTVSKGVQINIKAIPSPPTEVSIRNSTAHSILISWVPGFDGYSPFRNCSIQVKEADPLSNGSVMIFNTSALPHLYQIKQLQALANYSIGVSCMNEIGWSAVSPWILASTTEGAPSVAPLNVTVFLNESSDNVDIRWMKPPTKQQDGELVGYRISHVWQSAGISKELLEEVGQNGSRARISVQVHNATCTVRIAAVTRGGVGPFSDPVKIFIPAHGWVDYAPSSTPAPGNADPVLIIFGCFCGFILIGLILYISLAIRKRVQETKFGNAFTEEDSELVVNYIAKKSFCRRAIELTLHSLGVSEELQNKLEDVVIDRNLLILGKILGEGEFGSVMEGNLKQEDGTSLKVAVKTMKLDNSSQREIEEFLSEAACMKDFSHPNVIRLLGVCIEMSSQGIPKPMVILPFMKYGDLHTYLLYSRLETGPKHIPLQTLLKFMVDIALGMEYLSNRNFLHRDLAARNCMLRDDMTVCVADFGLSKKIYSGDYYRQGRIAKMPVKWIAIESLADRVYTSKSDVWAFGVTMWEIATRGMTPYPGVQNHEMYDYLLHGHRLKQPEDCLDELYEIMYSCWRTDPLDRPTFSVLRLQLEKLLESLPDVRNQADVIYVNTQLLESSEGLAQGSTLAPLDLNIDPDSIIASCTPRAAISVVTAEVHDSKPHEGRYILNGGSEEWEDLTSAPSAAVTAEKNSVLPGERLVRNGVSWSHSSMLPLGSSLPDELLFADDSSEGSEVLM

mouse MerTK = molecular target: T2, mouse MerTK (mouse, UniProt Q60805 23-496); assay: SPR BIAcore T200, Ab captured, 37C
T2 construct: also called MuMER
T2 sequence (looked up): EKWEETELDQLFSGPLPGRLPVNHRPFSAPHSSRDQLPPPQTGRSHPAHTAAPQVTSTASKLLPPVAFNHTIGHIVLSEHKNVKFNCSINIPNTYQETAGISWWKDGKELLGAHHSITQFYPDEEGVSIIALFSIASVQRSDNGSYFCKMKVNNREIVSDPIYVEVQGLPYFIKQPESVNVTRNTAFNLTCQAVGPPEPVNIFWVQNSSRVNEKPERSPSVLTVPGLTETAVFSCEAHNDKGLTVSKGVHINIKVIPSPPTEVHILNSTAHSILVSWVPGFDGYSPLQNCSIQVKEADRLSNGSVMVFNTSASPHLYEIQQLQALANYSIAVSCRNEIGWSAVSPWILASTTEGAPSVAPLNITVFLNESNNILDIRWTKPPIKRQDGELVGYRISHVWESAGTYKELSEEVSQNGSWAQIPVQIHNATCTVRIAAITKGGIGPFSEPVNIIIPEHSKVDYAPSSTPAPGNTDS
Experimental: (§1) Each rabbit and humanized antibody was subjected to a binding assay to determine its affinity to MerTK derived from various species.
(§2) All binding affinity determinations were obtained using Surface Plasmon Resonance (SPR) measurements from a BIAcore™-T200 instrument. Briefly, each rabbit or humanized antibody was captured to achieve approximately 100 RU (Response Units). Then, 3-fold serial dilutions of MerTK from various species (0.4 nM to 100 nM) diluted in HBS-EP buffer (0.01M HEPES pH 7.4, 0.15M NaCl, 3 mM EDTA and 0.05% v/v surfactant P20) was injected into the BIAcore™-T200 instrument at 25° C. or 37° C. with a flow rate of 30 μl/min. Association rates (kₒₙ) and dissociation rates (koff) were calculated using a simple one-to-one Langmuir binding model (BIAcore T200 evaluation software version 2.0). The equilibrium dissociation constant (KD) was calculated as the ratio koff/kₒₙ.

human MerTK = molecular target: T3, human MerTK (human, UniProt Q12866 26-499); assay: SPR BIAcore T200, Ab captured, 37C
T3 construct: also called HuMER
T3 sequence: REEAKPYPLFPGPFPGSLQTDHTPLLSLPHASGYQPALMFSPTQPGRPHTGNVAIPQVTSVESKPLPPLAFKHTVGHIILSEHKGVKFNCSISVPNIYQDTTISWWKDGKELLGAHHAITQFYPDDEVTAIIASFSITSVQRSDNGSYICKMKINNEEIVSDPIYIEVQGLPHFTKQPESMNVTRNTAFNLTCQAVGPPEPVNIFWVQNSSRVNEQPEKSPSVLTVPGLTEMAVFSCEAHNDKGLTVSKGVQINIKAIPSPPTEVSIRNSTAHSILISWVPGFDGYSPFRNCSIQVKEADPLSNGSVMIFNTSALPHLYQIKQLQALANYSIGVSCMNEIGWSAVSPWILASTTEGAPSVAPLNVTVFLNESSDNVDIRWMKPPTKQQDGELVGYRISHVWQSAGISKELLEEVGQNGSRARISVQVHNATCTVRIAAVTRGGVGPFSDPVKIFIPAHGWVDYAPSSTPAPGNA
Experimental: as §1, §2

[2] = molecular target: T1, human MerTK on human macrophages; assay: cell-based or functional assay; remark: listed apart in the source

B1: h10F7.v16 (antibody, V domains shown)
VH: EVQLVESGGGLVQPGGSLRLSCAVSGFSLSGYAMSWVRQAPGKGLEYIGVISSSGSSYYPSWAKGRFTISKDNSKNTLYLQMGSLRAEDMAVYYCARVQFYVGYAVYGYGIIDRLDLWGQGTLVTVSS
VL: DIVLTQSPDSLAVSLGERATINCQSSKSVYNNNWLSWYQQKPGQPPKLLIYRASTLESGVPDRFSGSGSGTDFTLTISSLQAEDVAVYFCAGGYSSSSSANAFGGGTKVEIK
notes: Humanized, human IgG1; also called 10F7 Fully Humanized; 10F7 Humanized polished mAb
In the case of B1, the “IC50 (nM), efferocytosis by human macrophages, Average (3 Donors)” value [1] is reported as 0.41 nM, the “IC50 (nM), efferocytosis by human macrophages, Donor A” value [1] is reported as 0.42 nM and the “IC50 (nM), efferocytosis by human macrophages, Donor B” value [1] is reported as 0.53 nM. The “IC50 (nM), efferocytosis by human macrophages, Donor C” value [1] was 0.27 nM, the “Max Inhibition (%), efferocytosis by human macrophages, Average (3 Donors)” value [1] was 69% and the “Max Inhibition (%), efferocytosis by human macrophages, Donor A” value [1] was 76%. The “Max Inhibition (%), efferocytosis by human macrophages, Donor B” value [1] was 73%, the “Max Inhibition (%), efferocytosis by human macrophages, Donor C” value [1] was 60% and the Kd (mouse MerTK) was 1.4 nM. The Kd (human MerTK) was 4.9 nM and the “IC50 (nM), efferocytosis by human macrophages, Average (3 Donors)” value [2] was 0.41 nM.
